The chains are these.
B1: Heat shock factor protein 1 (Homo sapiens), Q00613 (parent)
chain: MDLPVGPGAAGPSNVPAFLTKLWTLVSDPDTDALICWSPSGNSFHVFDQGQFAKEVLPKYFKHNNMASFVRQLNMYGFRKVVHIEQGGLVKPERDDTEFQHPCFLRGQEQLLENIKRKVTSVSTLKSEDIKIRQDSVTKLLTDVQLMKGKQECMDSKLLAMKHENEALWREVASLRQKHAQQQKVVNKLIQFLISLVQSNRILGVKRKIPLMLNDSGSAHSMPKYSRQFSLEHVHGSGPYSAPSPAYSSSSLYAPDAVASSGPIISDITELAPASPMASPGGSIDERPLSSSPLVRVKEEPPSPPQSPRVEEASPGRPSSVDTLLSPTALIDSILRESEPAPASVTALTDARGHTDTEGRPPSPPPTSTPEKCLSVACLDKNELSDHLDAMDSNLDNLQTMLSSHGFSVDTSALLDLFSPSVTVPDMSLPDLDSSLASIQELLSPQEPPRPPEAENSSPDSGKQLVHYTAQPLFLLDPGSVDTGSNDLPVLFELGEGSYFSEGDGFAEDPTISLLTGSEPPKAKDPTVS

This assay covers variants of B1. To be noted: with mapk2_human MAPKAPK2, P49137.
mapk2_human MAPKAPK2, P49137, sequence (P49137 whole entry, looked up): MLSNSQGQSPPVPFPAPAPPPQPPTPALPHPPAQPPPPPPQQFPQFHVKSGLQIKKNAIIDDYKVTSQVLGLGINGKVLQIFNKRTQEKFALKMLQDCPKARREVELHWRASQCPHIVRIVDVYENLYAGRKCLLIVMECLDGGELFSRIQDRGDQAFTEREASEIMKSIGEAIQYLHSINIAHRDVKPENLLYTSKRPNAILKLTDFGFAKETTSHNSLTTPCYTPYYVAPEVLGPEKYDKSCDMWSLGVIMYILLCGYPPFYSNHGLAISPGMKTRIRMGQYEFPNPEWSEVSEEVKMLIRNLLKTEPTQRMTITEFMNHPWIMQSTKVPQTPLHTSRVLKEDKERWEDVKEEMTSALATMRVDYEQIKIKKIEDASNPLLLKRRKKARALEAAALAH
As to S121A, the “effect of a mutation on the interaction” value is recorded as “increasing interaction”.
The same measure for S121D: “decreasing interaction”.

These data come from IntAct's records for PubMed 16278218.
